From paper doi:10.1101/2021.06.16.448340 (bioRxiv, 2021)

B2: QcrB, cytochrome b subunit of complex III (natural protein, Corynebacterium glutamicum, UniProt Q79VE9 1-539, looked up)
chain: MSLATVGNNLDSRYTMASGIRRQINKVFPTHWSFMLGEIALYSFIVLLLTGVYLTLFFDPSITKVIYDGGYLPLNGVEMSRAYATALDISFEVRGGLFIRQMHHWAALLFVVSMLVHMLRIFFTGAFRRPREANWIIGVVLIILGMAEGFMGYSLPDDLLSGVGLRIMSAIIVGLPIIGTWMHWLIFGGDFPSDLMLDRFYIAHVLIIPAILLGLIAAHLALVWYQKHTQFPGAGRTENNVIGIRIMPLFAVKAVAFGLIVFGFLALLAGVTTINAIWNLGPYNPSQVSAGSQPDVYMLWTDGAARVMPAWELYLGNYTIPAVFWVAVMLGILVVLLVTYPFIERKFTGDDAHHNLLQRPRDVPVRTSLGVMALVFYILLTVSGGNDVYAMQFHVSLNAMTWIGRIGLIVGPAIAYFITYRLCIGLQRSDREVLEHGIETGIIKQMPNGAFIEVHQPLGPVDDHGHPIPLPYAGAAVPKQMNQLGYAEVETRGGFFGPDPEDIRAKAKEIEHANHIEEANTLRALNEANIERDKNEGKN

How the values were obtained:
[1] = target: B2; test: cryo-EM structure
[2] = target: T1, CtaD with Strep-tag, subunit I homologue of complex IV (Corynebacterium glutamicum, UniProt Q79VD7 1-584); test: cryo-EM structure
T1 sequence (looked up): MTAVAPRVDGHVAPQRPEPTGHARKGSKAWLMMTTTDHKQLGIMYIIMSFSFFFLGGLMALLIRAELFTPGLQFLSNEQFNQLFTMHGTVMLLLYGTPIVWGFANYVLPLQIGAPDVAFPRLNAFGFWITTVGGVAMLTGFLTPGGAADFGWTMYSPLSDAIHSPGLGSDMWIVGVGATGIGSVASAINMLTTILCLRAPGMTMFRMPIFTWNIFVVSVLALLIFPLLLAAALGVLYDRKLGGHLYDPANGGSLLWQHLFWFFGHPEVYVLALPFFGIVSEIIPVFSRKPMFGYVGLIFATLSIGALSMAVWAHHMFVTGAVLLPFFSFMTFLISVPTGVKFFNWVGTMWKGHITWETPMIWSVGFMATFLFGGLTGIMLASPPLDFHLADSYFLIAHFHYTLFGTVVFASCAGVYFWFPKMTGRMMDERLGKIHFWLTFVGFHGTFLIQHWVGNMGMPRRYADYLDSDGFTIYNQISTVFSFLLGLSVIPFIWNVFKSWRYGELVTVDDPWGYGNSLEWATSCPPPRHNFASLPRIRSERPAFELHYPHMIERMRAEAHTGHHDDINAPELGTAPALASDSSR

[3] = target: T1, CtaD with Strep-tag, subunit I …; test: affinity purification with mass spectrometry
cryo-EM structure = target: the molecule itself; test: cryo-EM structure

B1: AscA (P20, PRSAF1) (natural protein, Corynebacterium glutamicum, UniProt Q8NP09 1-147, looked up)
chain: MAGSSHTIEPEIYRGVSTLDEPSAAWGWHGLKRNTIQLAGWISVLFMLGYNFGNHKGHVETIWLLVITALLVIGLLIHLFEPKLSQVRTITSRNKPVGHVEPDWTYDQATLTGTWGNLTDSQLRSVNIEPSRVAHLRAADSAKELDN
B1: binds [1]; binds [2].

B2: binds [3].

B3: Complex III (cyt. bc1 complex) protomer, QcrA-QcrB-QcrC (complex, Corynebacterium glutamicum)
chain 1: MSNNNDKQYTTQELNAMSNEDLARLGTELDDVTIAYRKERFPIANDPAEKRAARAVTFWLVLGIIGGLGFLATYIFWPWEYKAHGDEGLLAYTLYTPMLGITSGLCILSLGFAVVLYVKKFIPEEIAVQRRHDGPSEEVDRRTIVALLNDSWQTSTLGRRKLIMGLAGGGAVLAGLTIIAPMGGMIKNPWNPKEGPMDVQGDGTLWTSGWTLVENDVKVYLGRDTAAIAESHTDATGEHWSTTGVSRLVRMRPEDLAAASMETVFPLPAEMVNDGAEYDPAKDVYEHQMHSVHGPRNAVMLIRLRTADAEKVIEREGQESFHYGDYYAYSKICTHIGCPTSLYEAQTNRILCPCHQSQFDALHYGKPVFGPAARALPQLPITVDEEGYLIAAGNFIEPLGPAFWERKS
chain 2: MSLATVGNNLDSRYTMASGIRRQINKVFPTHWSFMLGEIALYSFIVLLLTGVYLTLFFDPSITKVIYDGGYLPLNGVEMSRAYATALDISFEVRGGLFIRQMHHWAALLFVVSMLVHMLRIFFTGAFRRPREANWIIGVVLIILGMAEGFMGYSLPDDLLSGVGLRIMSAIIVGLPIIGTWMHWLIFGGDFPSDLMLDRFYIAHVLIIPAILLGLIAAHLALVWYQKHTQFPGAGRTENNVIGIRIMPLFAVKAVAFGLIVFGFLALLAGVTTINAIWNLGPYNPSQVSAGSQPDVYMLWTDGAARVMPAWELYLGNYTIPAVFWVAVMLGILVVLLVTYPFIERKFTGDDAHHNLLQRPRDVPVRTSLGVMALVFYILLTVSGGNDVYAMQFHVSLNAMTWIGRIGLIVGPAIAYFITYRLCIGLQRSDREVLEHGIETGIIKQMPNGAFIEVHQPLGPVDDHGHPIPLPYAGAAVPKQMNQLGYAEVETRGGFFGPDPEDIRAKAKEIEHANHIEEANTLRALNEANIERDKNEGKN
chain 3: MAKPSAKKVKNRRKVRRTVAGALALTIGLSGAGILATAITPDAQVATAQRDDQALISEGKDLYDVACITCHGVNLQGVEDRGPSLVGVGEGAVYFQVHSGRMPILRNEAQAERKAPRYTEAQTLAIAAYVAANGGGPGLVYNEDGTLAMEELRGENYDGQITSADVARGGDLFRLNCASCHNFTGRGGALSSGKYAPNLDAANEQEIYQAMLTGPQNMPKFSDRQLSADEKKDIIAFIKSTKETPSPGGYSLGSLGPVAEGLFMWVFGILVLVAAAMWIGSRS
For B3, the “stoichiometry N” value (cryo-EM structure) was 2.
